Results: US20050158818A1, “Cephalosporin C acylases” (ANTIBIOTICOS S.p.A., priority 2004, published 2005)

Columns and labels:
[1] = Acylase kinetics, hydrolysis of glutaryl 7-ACA (7-ACA determined at 415 nm with p-dimethylaminobenzaldehyde); format: biochemical; settings: substrate Gl-7-ACA; for Km: 0.1 M phosphate buffer pH 8.0, 37° C.; for Vmax (U/mg): 0.1 M phosphate buffer pH 8.0, 37° C. (converted in units at 25° C.); for Inhibition after: substrate concentration after which inhibition is seen
Method: (§1) Kinetics parameters of the mutants and HisVAC acylase were determined measuring the hydrolysis of cephalosporin C or glutaryl 7-ACA in 0.1 M phosphate buffer solution, pH 8.0 at 37° C. (then converted in units at 25° C.). The amount of 7-ACA is determined spectrophotometrically, using a standard curve, measuring the yellow intensity at 415 nm (Schiff base), resulting upon reaction with p-dimethylaminobenzaldehyde, using modified Bulasingham method (Biochem. Biophys. Acta 276, 250, 1972).
(§2) One acylase unit is the amount of enzyme (in solution or immobilized) which, under the assay conditions, produces one micromole of 7-ACA/minute.

[2] = Acylase kinetics, hydrolysis of cephalosporin C (7-ACA determined at 415 nm with p-dimethylaminobenzaldehyde); format: biochemical; settings: substrate Cef C; for Km: 0.1 M phosphate buffer pH 8.0, 37° C.; for Vmax (U/mg): 0.1 M phosphate buffer pH 8.0, 37° C. (converted in units at 25° C.); for Inhibition after: substrate concentration after which inhibition is seen
Method: as §1, §2

| Inhibition after [1] [mM] | Inhibition after [2] [mM] | Molecule | Km [1] [mM] | Vmax (U/mg) [1] [U/mg] | Km [2] [mM] | Vmax (U/mg) [2] [U/mg] |
| --- | --- | --- | --- | --- | --- | --- |
| 50 | 60 | H296F: HisVAC mutant, histidine 296 replaced with Phe (protein) MTMAANTDRAVLQAALPPLSGSLPIPGLSASVRVRRDAWGIPHIKASGEADAYRALGFVHSQDRLFQMELTRRKALGRAAEWLGAEAAEADILVRRLGMEKVCRRDFEALGVEAKDMLRAYVAGVNAFLASGAPLPVEYGLLGAEPEPWEPWHSIAVMRRLGLLMGSVWFKLWRMLALPVVGAANALKLRYDDGGRDLLCIPPGAEADRLEADLATLRPAVDALLKAMGGDASDAAGGGSNNWAVAPGRTATGRPILAGDPHRVFEIPGFYAQHHLACDRFDMIGLTVPGVPGFPFFAHNGKVAYCVTHAFMDIHDLYLEQFAGEGRTARFGNDFEPVAWSRDRIAVRGGADREFDIVETRHGPVIAGDPRDGAALTLRSVQFAETDLSFDCLTRMPGASTVAQLYDATRGWGLIDHNLVAGDVAGSIGHLVRARVPSRPRENGWLPVPGWSGEHEWRGWIPHEAMPRVIDPPGGIIVTANNRVVADDHPDYLCTDCHPPYRAERIMKRLVANPAFAVDDAAAIHADTLSPHVGLLRRRLEALGARDDSAAEGLRQMLVAWDGRMDAASEVASAYNAFRRALTRLVTDRSGLEQAISHPFAAVAPGVSPQGQVWWAVPTLLRDDDAGMLKGWSWDQALSEALSVASQNLTGRSWGEEHRPRFTHPLATQFPAWAGLLNPASRPIGGDGDTVLANGLVPSAGPQATYGALSRYVFDVGNWDNSRWVVFHGASGHPASAHYADQNAPWSDCAMVPMLYSWDRIAAEAVTSQELVPALEHHHHHH | 1.9 | 1.7 | 4.1 | 0.05 |
|  | 50 | H417Y: HisVAC mutant, histidine 417 replaced with Tyr (protein) MTMAANTDRAVLQAALPPLSGSLPIPGLSASVRVRRDAWGIPHIKASGEADAYRALGFVHSQDRLFQMELTRRKALGRAAEWLGAEAAEADILVRRLGMEKVCRRDFEALGVEAKDMLRAYVAGVNAFLASGAPLPVEYGLLGAEPEPWEPWHSIAVMRRLGLLMGSVWFKLWRMLALPVVGAANALKLRYDDGGRDLLCIPPGAEADRLEADLATLRPAVDALLKAMGGDASDAAGGGSNNWAVAPGRTATGRPILAGDPHRVFEIPGFYAQHHLACDRFDMIGLTVPGVPGFPHFAHNGKVAYCVTHAFMDIHDLYLEQFAGEGRTARFGNDFEPVAWSRDRIAVRGGADREFDIVETRHGPVIAGDPRDGAALTLRSVQFAETDLSFDCLTRMPGASTVAQLYDATRGWGLIDYNLVAGDVAGSIGHLVRARVPSRPRENGWLPVPGWSGEHEWRGWIPHEAMPRVIDPPGGIIVTANNRVVADDHPDYLCTDCHPPYRAERIMKRLVANPAFAVDDAAAIHADTLSPHVGLLRRRLEALGARDDSAAEGLRQMLVAWDGRMDAASEVASAYNAFRRALTRLVTDRSGLEQAISHPFAAVAPGVSPQGQVWWAVPTLLRDDDAGMLKGWSWDQALSEALSVASQNLTGRSWGEEHRPRFTHPLATQFPAWAGLLNPASRPIGGDGDTVLANGLVPSAGPQATYGALSRYVFDVGNWDNSRWVVFHGASGHPASAHYADQNAPWSDCAMVPMLYSWDRIAAEAVTSQELVPALEHHHHHH | 4.3 | 14.8 | 12.3 | 0.05 |
| 25 |  | D416Y: HisVAC mutant, aspartic acid 416 replaced with Tyr (protein) MTMAANTDRAVLQAALPPLSGSLPIPGLSASVRVRRDAWGIPHIKASGEADAYRALGFVHSQDRLFQMELTRRKALGRAAEWLGAEAAEADILVRRLGMEKVCRRDFEALGVEAKDMLRAYVAGVNAFLASGAPLPVEYGLLGAEPEPWEPWHSIAVMRRLGLLMGSVWFKLWRMLALPVVGAANALKLRYDDGGRDLLCIPPGAEADRLEADLATLRPAVDALLKAMGGDASDAAGGGSNNWAVAPGRTATGRPILAGDPHRVFEIPGFYAQHHLACDRFDMIGLTVPGVPGFPHFAHNGKVAYCVTHAFMDIHDLYLEQFAGEGRTARFGNDFEPVAWSRDRIAVRGGADREFDIVETRHGPVIAGDPRDGAALTLRSVQFAETDLSFDCLTRMPGASTVAQLYDATRGWGLIYHNLVAGDVAGSIGHLVRARVPSRPRENGWLPVPGWSGEHEWRGWIPHEAMPRVIDPPGGIIVTANNRVVADDHPDYLCTDCHPPYRAERIMKRLVANPAFAVDDAAAIHADTLSPHVGLLRRRLEALGARDDSAAEGLRQMLVAWDGRMDAASEVASAYNAFRRALTRLVTDRSGLEQAISHPFAAVAPGVSPQGQVWWAVPTLLRDDDAGMLKGWSWDQALSEALSVASQNLTGRSWGEEHRPRFTHPLATQFPAWAGLLNPASRPIGGDGDTVLANGLVPSAGPQATYGALSRYVFDVGNWDNSRWVVFHGASGHPASAHYADQNAPWSDCAMVPMLYSWDRIAAEAVTSQELVPALEHHHHHH | 1.75 | 4.9 | 7.2 | 0.66 |
| 12.5 | 50 | D416Y-H417Y: HisVAC double mutant, aspartic acid 416 and histidine 417 replaced with Tyr (protein) MTMAANTDRAVLQAALPPLSGSLPIPGLSASVRVRRDAWGIPHIKASGEADAYRALGFVHSQDRLFQMELTRRKALGRAAEWLGAEAAEADILVRRLGMEKVCRRDFEALGVEAKDMLRAYVAGVNAFLASGAPLPVEYGLLGAEPEPWEPWHSIAVMRRLGLLMGSVWFKLWRMLALPVVGAANALKLRYDDGGRDLLCIPPGAEADRLEADLATLRPAVDALLKAMGGDASDAAGGGSNNWAVAPGRTATGRPILAGDPHRVFEIPGFYAQHHLACDRFDMIGLTVPGVPGFPHFAHNGKVAYCVTHAFMDIHDLYLEQFAGEGRTARFGNDFEPVAWSRDRIAVRGGADREFDIVETRHGPVIAGDPRDGAALTLRSVQFAETDLSFDCLTRMPGASTVAQLYDATRGWGLIYYNLVAGDVAGSIGHLVRARVPSRPRENGWLPVPGWSGEHEWRGWIPHEAMPRVIDPPGGIIVTANNRVVADDHPDYLCTDCHPPYRAERIMKRLVANPAFAVDDAAAIHADTLSPHVGLLRRRLEALGARDDSAAEGLRQMLVAWDGRMDAASEVASAYNAFRRALTRLVTDRSGLEQAISHPFAAVAPGVSPQGQVWWAVPTLLRDDDAGMLKGWSWDQALSEALSVASQNLTGRSWGEEHRPRFTHPLATQFPAWAGLLNPASRPIGGDGDTVLANGLVPSAGPQATYGALSRYVFDVGNWDNSRWVVFHGASGHPASAHYADQNAPWSDCAMVPMLYSWDRIAAEAVTSQELVPALEHHHHHH | 9 | 1.2 | 13.1 | 4.2 |
